The target in data set [1] is DB-JBP1 K535A (Leishmania tarentolae, UniProt Q9U6M1 382-561, K535A). Nature of the data set: fluorescence anisotropy.
The target in data set [2] is DB-JBP1 K436A (Leishmania tarentolae, UniProt Q9U6M1 382-561, K436A). Nature of the data set: fluorescence anisotropy.
For data set [3], the target named is JBP1 D525A (UniProt Q9U6M1 1-827, D525A). Description: fluorescence anisotropy.
The target in data set [4] is DB-JBP1 D536A (Leishmania tarentolae, UniProt Q9U6M1 382-561, D536A). Nature of the data set: SPR.
In data set [5] the target is DB-JBP1 D525A (Leishmania tarentolae, UniProt Q9U6M1 382-561, D525A). Description: SPR.

B1: VSG J-DNA 14-mer (dsDNA)
DNA 1: GGCAGCTGCAACAA
DNA 2: TTGTTGCAGCTGCC
modifications: base J (beta-D-glucosyl-hydroxymethyluracil) replaces T7 of strand 1
Consider B1, for which the binding result in data set [1] and in data set [2] was “binds” in each case.

B2: VSG T-DNA 14-mer (dsDNA)
DNA 1: GGCAGCTGCAACAA
DNA 2: TTGTTGCAGCTGCC
As to B2, the affinity in data set [3], expressed as Kd, was 11.7 µM.

B3: VSG J-DNA 14-mer, biotin (dsDNA)
DNA 1: GGCAGCTGCAACAA
DNA 2: TTGTTGCAGCTGCC
modifications: base J replaces T7 of strand 1
Take B3: the binding result in data set [4] is reported as “binds”; in data set [5] it was “no binding”.

(Values after PMC3141245.)
